Measured values taken from PMC5519985 (Nature Communications, 2017).
Values belong to the molecule of their own block, whether it stands above or below them.

Tests used:
[1] = target: IL-13Rα1 (Homo sapiens) (UniProt P78552); details: cited from earlier work
[2] = target: SNAPf-IL-13Rα1-TM (IL-13Rα1 truncated after the transmembrane domain); experiment: single molecule co-localization and co-tracking (dual-colour TIRF microscopy); ^DY547IL-4Rα-TM and ^DY647IL-13Rα1-TM reconstituted into polymer-supported membranes (PSM); ligand from 10 pM up to 50 μM, 5 min equilibration; equilibrium model fitted to the dimerization curves
[3] = target: HaloTag-IL-13Rα1 (UniProt P78552); experiment: particle image cross-correlation (PICCS) of single molecule localizations on live cells; HeLa cells co-expressing ^DY647IL-4Rα and ^TMRIL-13Rα1, without and with ligand; correlated fraction α; effective 2D constant by the law of mass action from α and the surface concentrations corrected for the degree of labelling
[4] = target: IL-4Rα (Homo sapiens) (UniProt P24394); details: cited from earlier work
[5] = target: T1, IL-4Rα-EC/IL-4D binary complex on the SSM (UniProt P05112 25-153; P24394 26-232, H59Y | K84D, CoA-ATTO 488 on the ybbR-tag); experiment: TIRFS-RIf (total internal reflection fluorescence spectroscopy with reflectance interference); SSM with IL-4Rα-EC and IL-13Rα1-EC; dissociation of ^AT488IL-4D while free IL-13Rα1-EC is blocked by injection of IL-13 (Supplementary Fig. 7); details: both partners purified
T1 construct: interleukin-4; IL-4Rα, ectodomain; Chains as m2 and m10; source: formed on the solid-supported membrane from m2 and m10; not shown: ybbR-tag, N-terminal, kept; His10, C-terminal, kept
T1 sequence (looked up) 1: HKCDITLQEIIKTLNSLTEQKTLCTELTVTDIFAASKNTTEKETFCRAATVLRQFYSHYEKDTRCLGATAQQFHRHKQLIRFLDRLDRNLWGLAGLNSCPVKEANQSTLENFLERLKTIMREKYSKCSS
T1 sequence (looked up) 2: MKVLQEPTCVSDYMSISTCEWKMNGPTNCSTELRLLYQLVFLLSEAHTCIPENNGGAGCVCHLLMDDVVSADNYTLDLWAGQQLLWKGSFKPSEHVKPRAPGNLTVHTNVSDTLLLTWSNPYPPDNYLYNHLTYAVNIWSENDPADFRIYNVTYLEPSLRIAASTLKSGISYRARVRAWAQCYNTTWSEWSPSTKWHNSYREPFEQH

Molecule: IL-4 (from UniProt P05112)
Kd [1]: 2500 nM

Molecule: IL-4/^DY647IL-4Rα binary complex in the plasma membrane of HeLa cells (from UniProt P05112 25-153; P24394 26-825)
correlated fraction α (PICCS) [3]: 11%
effective 2D equilibrium dissociation constant (molecules μm^−2) [3]: 0.1

Molecule: IL-13/IL-13Rα1-EC complex (from UniProt P35225)
Kd [4]: 15 nM

Second part, the molecule after the results:

2D equilibrium dissociation constant (molecules μm^−2) [2]: 1.6
Molecule: IL-4/^DY547IL-4Rα-TM binary complex in the PSM (from UniProt P05112 25-153)

binding result [5]: binds
B1: IL-13Rα1-EC (ectodomain of IL-13Rα1 with C-terminal decahistidine tag) (domain or fragment, UniProt P78552 22-343, looked up)
chain: GGGGAAPTETQPPVTNLSVSVENLCTVIWTWNPPEGASSNCSLWYFSHFGDKQDKKIAPETRRSIEVPLNERICLQVGSQCSTNESEKPSILVEKCISPPEGDPESAVTELQCIWHNLSYMKCSWLPGRNTSPDTNYTLYYWHRSLEKIHQCENIFREGQYFGCSFDLTKVKDSSFEQHSVQIMVKDNAGKIKPSFNIVPLTSRVKPDPPHIKNLSFHNDDLYVQWENPQNFISRCLFYEVEVNNSQTETHNVFYVQEAKCENPEFERNVENTSCFMVPGVLPDTLNTVRIRVKTNKLCYEDDKLWSNWSQEMSIGKKRNST
modifications: CoA-Alexa Fluor 568 on the ybbR-tag in the FRET experiments (^AF568IL-13Rα1-EC); else unlabelled
